Measured values reported in the supplement of paper PMC9112550, “Optimization of the antimicrobial peptide Bac7 by deep mutational scanning” (BMC Biology, 2022).

test system: Escherichia coli TOP10; assay: shrunken log2 fold change of peptide-encoding DNA abundance (4.5 h post-induction vs induction); higher = less antimicrobial activity (less host growth inhibition); details: time post-induction: 4.5 h; library: site-saturation at positions 5, 18, 19, 20
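Further: peptides expressed intracellularly from a pBAD plasmid library in pooled LB shake-flask culture, induced with 0.3% L-arabinose, DNA abundance read by NGS, three biological replicates, DESeq2 with apeglm shrinkage.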

Sequence | shrunken log2 fold change
RRIRRRPPRLPRPRPRPLMLPRP | -0.108
RRIRHRPPRLPRPRPRPDQEPRP | -0.01
RRIRTRPPRLPRPRPRPCSNPRP | -0.0243
RRIRLRPPRLPRPRPRPNKHPRP | -0.43
RRIRFRPPRLPRPRPRPWLEPRP | 0.0931
RRIRERPPRLPRPRPRPGTMPRP | 0.0721
RRIRFRPPRLPRPRPRPMPEPRP | -0.0117
RRIRKRPPRLPRPRPRPSDWPRP | 0.288
RRIRFRPPRLPRPRPRPYRTPRP | -0.165
RRIRKRPPRLPRPRPRPQHHPRP | -0.201
RRIRSRPPRLPRPRPRPRKQPRP | 0.248
RRIRSRPPRLPRPRPRPGCAPRP | 0.46
RRIRWRPPRLPRPRPRPFHLPRP | -0.818
RRIRQRPPRLPRPRPRPRQFPRP | -0.121
RRIRARPPRLPRPRPRPYKVPRP | -0.00867
RRIRSRPPRLPRPRPRPSTGPRP | -0.417
RRIRNRPPRLPRPRPRPIMGPRP | -0.0169
RRIRMRPPRLPRPRPRPCDIPRP | -0.151
RRIRSRPPRLPRPRPRPDAAPRP | 1.05
RRIRMRPPRLPRPRPRPQAQPRP | 0.299

Sequence | shrunken log2 fold change
RRIRNRPPRLPRPRPRPQPFPRP | -0.0278
RRIRFRPPRLPRPRPRPGFCPRP | -0.179
RRIRYRPPRLPRPRPRPGFRPRP | -0.322
RRIRCRPPRLPRPRPRPFNCPRP | -1.32
RRIRCRPPRLPRPRPRPSDIPRP | -0.814
RRIRWRPPRLPRPRPRPSMIPRP | -0.12
RRIRGRPPRLPRPRPRPNPIPRP | 0.0839
RRIRIRPPRLPRPRPRPFLTPRP | -0.736
RRIRCRPPRLPRPRPRPQINPRP | -0.685
RRIRHRPPRLPRPRPRPAGTPRP | -0.04
RRIRSRPPRLPRPRPRPNGKPRP | -0.437
RRIRHRPPRLPRPRPRPTCYPRP | -0.272
RRIRHRPPRLPRPRPRPDPTPRP | -0.0262
RRIRIRPPRLPRPRPRPVTIPRP | 0.00236
RRIRHRPPRLPRPRPRPLWNPRP | -1.07
RRIRTRPPRLPRPRPRPHWRPRP | 0.027
RRIRMRPPRLPRPRPRPWWIPRP | -0.442
RRIRWRPPRLPRPRPRPVYGPRP | -0.083
RRIRMRPPRLPRPRPRPLGRPRP | 0.723
RRIRKRPPRLPRPRPRPADAPRP | 0.194

Sequence | shrunken log2 fold change
RRIRWRPPRLPRPRPRPCMCPRP | -0.0735
RRIRERPPRLPRPRPRPMETPRP | 0.015
RRIRLRPPRLPRPRPRPNVIPRP | -0.106
RRIRWRPPRLPRPRPRPVDSPRP | 0.183
RRIRCRPPRLPRPRPRPEAEPRP | 0.656
RRIRFRPPRLPRPRPRPVRVPRP | 0.349
RRIRMRPPRLPRPRPRPWFPPRP | -0.0494
RRIRLRPPRLPRPRPRPTFMPRP | -0.305
RRIRLRPPRLPRPRPRPNIFPRP | 0.104
RRIRIRPPRLPRPRPRPEWSPRP | -0.26
RRIRDRPPRLPRPRPRPYGKPRP | -0.511
RRIRHRPPRLPRPRPRPGLVPRP | 0.0437
RRIRYRPPRLPRPRPRPRLMPRP | -0.0571
RRIRDRPPRLPRPRPRPSSWPRP | -0.0298
RRIRGRPPRLPRPRPRPQVRPRP | 0.713
RRIRMRPPRLPRPRPRPLTCPRP | -0.0821
RRIRRRPPRLPRPRPRPCDGPRP | 0.0965
RRIRTRPPRLPRPRPRPQWWPRP | 0.199
RRIRPRPPRLPRPRPRPCKGPRP | -0.252
RRIRIRPPRLPRPRPRPVKSPRP | -0.0366
